In patent US8703918 one finds MFI data, which are given here for one substance.

The test concerns the target prostate specific membrane antigen (PSMA) (human) (UniProt Q04609). The test can be described thus: FACS on LNCaP (PSMA+) cells; negative control, background signal.

Sequence of prostate specific membrane antigen (PSMA) (human) (Q04609 whole entry): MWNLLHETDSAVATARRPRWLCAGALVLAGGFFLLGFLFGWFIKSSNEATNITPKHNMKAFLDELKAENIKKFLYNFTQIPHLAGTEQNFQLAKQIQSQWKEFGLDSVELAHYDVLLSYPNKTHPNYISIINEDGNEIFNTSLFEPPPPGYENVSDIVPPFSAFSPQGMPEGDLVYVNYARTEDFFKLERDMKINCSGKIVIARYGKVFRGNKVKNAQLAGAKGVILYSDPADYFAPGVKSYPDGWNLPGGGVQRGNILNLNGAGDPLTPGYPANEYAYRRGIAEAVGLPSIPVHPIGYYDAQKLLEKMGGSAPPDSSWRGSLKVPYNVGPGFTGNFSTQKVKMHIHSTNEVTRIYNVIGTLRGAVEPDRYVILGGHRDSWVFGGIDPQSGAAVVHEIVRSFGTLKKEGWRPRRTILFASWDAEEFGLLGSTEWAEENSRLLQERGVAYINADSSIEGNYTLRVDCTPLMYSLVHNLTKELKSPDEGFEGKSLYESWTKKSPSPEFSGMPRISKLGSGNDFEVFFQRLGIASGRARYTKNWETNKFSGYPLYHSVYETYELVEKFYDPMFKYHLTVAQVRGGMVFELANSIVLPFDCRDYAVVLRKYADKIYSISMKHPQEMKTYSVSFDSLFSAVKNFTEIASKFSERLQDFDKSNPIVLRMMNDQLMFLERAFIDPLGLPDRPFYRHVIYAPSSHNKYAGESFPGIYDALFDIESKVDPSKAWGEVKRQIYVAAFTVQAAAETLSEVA

On to avidin-FITC, for which the MFI was 161 MFI.
